The values below come from paper PMC10520083 (2023).

Experiment [1] concerns the target human α7 nicotinic acetylcholine receptor with the ICD replaced by a short linker and a C-terminal Rho1D4 tag (α7∆ICDcryo), reconstituted in MSP1E3D1 nanodiscs (human) (UniProt P36544). The experiment can be described thus: cryo-EM structure; 1 µM α7 pentamer in MSP1E3D1 nanodiscs with 50 µM nanobody (50-fold excess), no nicotine (C4-Apo, E3-Apo).
Experiment [2] shares this target. The experiment can be described thus: cryo-EM structure; 1 µM α7 pentamer in MSP1E3D1 nanodiscs with a sub-saturating 10 µM nanobody, no nicotine (C4partial-Apo; 2D classification for E3).
Experiment [3] deals with full-length human α7 nicotinic acetylcholine receptor fused to a Rho1D4 tag at its C-terminus (α7FLcryo) (human) (UniProt P36544). The experiment can be described thus: cryo-EM structure; 1 µM α7 pentamer in MSP1E3D1 nanodiscs with 50 µM nanobody (50-fold excess) and 100 µM nicotine (C4-Nic, E3-Nic).
The target of experiment [4] is human α7 nicotinic acetylcholine receptor with the ICD replaced by a short linker and a C-terminal Rho1D4 tag (α7∆ICDcryo), reconstituted in MSP1E3D1 nanodiscs (human) (UniProt P36544). Briefly: SPR; single-cycle kinetics, Biacore T200; α7-nanodiscs captured on anti-Rho tag antibody 1D4 immobilised on CM5; nanobodies injected (five increasing concentrations, 600 s each, 30 µl/min); buffer A (20 mM Tris, 250 mM NaCl) pH 8, 25 °C.

The target is the same in experiment [5]. The experiment is described as above. This is another data set of the same source.
Experiment [6] shares this target. Briefly: cryo-EM structure; 1 µM α7 pentamer in MSP1E3D1 nanodiscs with 50 µM nanobody (50-fold excess) and 100 µM nicotine (C4-Nic, E3-Nic).
The target of experiment [7] is T1, human α7 nicotinic acetylcholine receptor with the ICD replaced by a short linker and a C-terminal Rho1D4 tag … (human, UniProt P36544 23-502, N-linked glycans at Asn23, Asn67 and Asn110).
T1 chain: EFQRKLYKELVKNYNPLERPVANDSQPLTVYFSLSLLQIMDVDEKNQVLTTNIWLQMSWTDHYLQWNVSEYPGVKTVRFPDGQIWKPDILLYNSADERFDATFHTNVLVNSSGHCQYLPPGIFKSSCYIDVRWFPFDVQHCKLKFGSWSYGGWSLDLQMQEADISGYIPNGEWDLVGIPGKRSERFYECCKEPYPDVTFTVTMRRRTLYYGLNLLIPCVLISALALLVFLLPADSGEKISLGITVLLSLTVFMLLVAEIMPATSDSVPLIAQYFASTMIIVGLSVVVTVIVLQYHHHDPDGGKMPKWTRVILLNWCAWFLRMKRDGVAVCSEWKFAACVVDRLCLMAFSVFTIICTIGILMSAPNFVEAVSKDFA
Briefly: SPR; α7 prep 1.

The target in experiment [8] is T1, human α7 nicotinic acetylcholine …. The experiment can be described thus: SPR; α7 prep 1, + 100 µM nicotine.
The target is the same in experiment [9]. The experiment can be described thus: SPR; α7 prep 2.
Experiment [10] deals with human α7 nicotinic acetylcholine receptor L247T mutant (human) (UniProt P36544).
Experiment [11] concerns the target T1, human α7 nicotinic acetylcholine …. Briefly: SPR; α7 prep 1, + 100 µM nicotine.
The target is the same in experiment [12]. Briefly: SPR; α7 prep 1.
Experiment [13] shares this target. The experiment can be described thus: SPR; α7 prep 2.

Residue numbers refer to the chain shown, from its start. Numbers in names are those of the source. Like-named read-outs stand apart in the source and are kept apart here.

For the molecule “human α7 nicotinic acetylcholine receptor with the ICD replaced by a short linker and a C-terminal Rho1D4 tag (α7∆ICDcryo), reconstituted in MSP1E3D1 nanodiscs (from UniProt P36544 23-502)”, the stoichiometry N in experiment [1] came out at 5.

B1: nanobody C4 (VHH)
VHH: QVQLVESGGGLVQAGGSLKLSCAASGFTFAHYAMVWFRQAPGKEREFVAGISWSGASTYYASSVKGRFTISRDNAKNTVYLQMNSLKPEDTAVYYVAAARFGVGVDDDYSYWGQGTQVTVSS
For B1, the values for the stoichiometry N (nanobodies per α7 pentamer) in experiment [2], in experiment [3] and in experiment [1] were 3, 5 and 5, respectively. The Kd was determined as 0.2 nM in experiment [4] and 0.1 nM in experiment [5]. Also, the dissociation rate constant (koff) in experiment [4] came to 0.00024 s⁻¹. For the same molecule, in [4], the association rate constant (kon) was 1.2e+06 M⁻¹ s⁻¹. The stoichiometry N (nanobodies per receptor molecule) in experiment [4] was less than 3.

B2: nanobody E3 (VHH)
VHH: AVQLQASGGGLVQAGDSLRLSCAASGGTFSHYAVGWFRQAPGKEREFVAAISWSGRSTSFANSVKGRFTISRDSAKNTAYLQMNNLKPEDTAVYCCAPARFGTGSAARDEYDDCGQGTQVTVSS
On to B2, for which the stoichiometry N (nanobodies per α7 pentamer) in [6] and in [1] was 5 throughout. The Kd was found to be 1 nM in experiment [4], 8 nM in experiment [7] and 7.4 nM in experiment [8]. The koff in experiment [4] worked out at 0.0119 s⁻¹; in experiment [9], 0.019 s⁻¹; in experiment [11] it was 0.0085 s⁻¹; in experiment [12], 0.013 s⁻¹. In addition, the kon in [4] worked out at 1.1e+07 M⁻¹ s⁻¹. The molecule further showed a stoichiometry N (nanobodies per receptor molecule) in experiment [4] of less than 3. Moreover, the increase of the holding current during pre-application of E3 in the absence of ACh (direct activation, TEVC, Xenopus oocytes) (% of the response to 0.3 µM ACh) in experiment [10] stood at 6.

B3: nanobody E3 R56A (VHH)
VHH: B2 VHH with R56A
In the case of B3, the Kd in [13] was 1.5 nM. In experiment [9], the off-rate (koff) amounted to 0.01 s⁻¹.

B4: nanobody E3 E110Q (VHH)
VHH: B2 VHH with E110Q
Regarding B4, in [13], the Kd was 0.62 nM. This molecule also returned an off-rate constant (koff) in experiment [9] of 0.011 s⁻¹.
